Measurements: the supplement of paper PMC11316812
± gives the standard deviation of the averaged measurements.

What was measured:
hTERT-HMEC = test: percentage of EdU-negative (G0-arrested) nuclei per well, 72 h; higher = more G0 arrest; conditions: reference: sequence is the full UniProt precursor, the tested protein was the secreted form or ectodomain
MCF7 = test: as above; conditions: reference: sequence is the full UniProt precursor, the tested protein was the secreted form or ectodomain
[1] = protein concentration 0.0157525 µM
[2] = protein concentration 0.157525 µM
[3] = protein concentration 0.03125 µM
[4] = protein concentration 0.3125 µM
[5] = protein concentration 0.0225 µM
[6] = protein concentration 0.0191429 µM
[7] = protein concentration 0.191429 µM
[8] = protein concentration 0.00975 µM
[9] = protein concentration 0.0975 µM
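Further: secreted proteins added to cultured cells, EdU pulse at the end, nuclei found by Hoechst imaging, EdU status from nuclear versus surrounding ring intensity ratio, PBS as neutral control.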

## MRQVCCSALPPPPLEKGRCSSYSDSSSSSSERSSSSSSSSSESGSSSRSSSNNSSISRPAAPPEPRPQQQPQPRSPAARRAAARSRAAAAGGMRRDPAPGFSMLLFGVSLACYSPSLKSVQDQAYKAPVVVEGKVQGLVPAGGSSSNSTREPPASGRVALVKVLDKWPLRSGGLQREQVISVGSCVPLERNQRYIFFLEPTEQPLVFKTAFAPLDTNGKNLKKEVGKILCTDCATRPKLKKMKSQTGQVGEKQSLKCEAAAGNPQPSYRWFKDGKELNRSRDIRIKYGNGRKNSRLQFNKVKVEDAGEYVCEAENILGKDTVRGRLYVNSVSTTLSSWSGHARKCNETAKSYCVNGGVCYYIEGINQLSCKCPNGFFGQRCLEKLPLRLYMPDPKQKAEELYQKRVLTITGICVALLVVGIVCVVAYCKTKKQRKQMHNHLRQNMCPAHQNRSLANGPSHPRLDPEEIQMADYISKNVPATDHVIRRETETTFSGSHSCSPSHHCSTATPTSSHRHESHTWSLERSESLTSDSQSGIMLSSVGTSKCNSPACVEARARRAAAYNLEERRRATAPPYHDSVDSLRDSPHSERYVSALTTPARLSPVDFHYSLATQVPTFEITSPNSAHAVSLPPAAPISYRLAEQQPLLRHPAPPGPGPGPGPGPGPGADMQRSYDSYYYPAAGPGPRRGTCALGGSLGSLPASPFRIPEDDEYETTQECAPPPPPRPRARGASRRTSAGPRRWRRSRLNGLAAQRARAARDSLSLSSGSGGGSASASDDDADDADGALAAESTPFLGLRGAHDALRSDSPPLCPAADSRTYYSLDSHSTRASSRHSRGPPPRAKQDSAPL
hTERT-HMEC; [1]
  percentage of EdU-negative: 4.61 ± 0.33%
hTERT-HMEC; [2]
  percentage of EdU-negative: 5.33 ± 1%
MCF7; [1]
  percentage of EdU-negative: 24.9 ± 0.53%
MCF7; [2]
  percentage of EdU-negative: 26.5 ± 0.38%

## MERMLPLLALGLLAAGFCPAVLCHPNSPLDEENLTQENQDRGTHVDLGLASANVDFAFSLYKQLVLKAPDKNVIFSPLSISTALAFLSLGAHNTTLTEILKGLKFNLTETSEAEIHQSFQHLLRTLNQSSDELQLSMGNAMFVKEQLSLLDRFTEDAKRLYGSEAFATDFQDSAAAKKLINDYVKNGTRGKITDLIKDLDSQTMMVLVNYIFFKAKWEMPFDPQDTHQSRFYLSKKKWVMVPMMSLHHLTIPYFRDEELSCTVVELKYTGNASALFILPDQDKMEEVEAMLLPETLKRWRDSLEFREIGELYLPKFSISRDYNLNDILLQLGIEEAFTSKADLSGITGARNLAVSQVVHKAVLDVFEEGTEASAATAVKITLLSALVETRTIVRFNRPFLMIIVPTDTQNIFFMSKVTNPKQA
hTERT-HMEC; [3]
  percentage of EdU-negative: 4.76 ± 0.8%
hTERT-HMEC; [4]
  percentage of EdU-negative: 9.51 ± 0.15%
MCF7; [3]
  percentage of EdU-negative: 24.5 ± 0.068%
MCF7; [4]
  percentage of EdU-negative: 28 ± 3.5%

## MKLAVTLTLVTLALCCSSASAEICPSFQRVIETLLMDTPSSYEAAMELFSPDQDMREAGAQLKKLVDTLPQKPRESIIKLMEKIAQSSLCN
hTERT-HMEC; [3]
  percentage of EdU-negative: 4.77 ± 0.77%
hTERT-HMEC; [4]
  percentage of EdU-negative: 4.91 ± 0.97%
MCF7; [3]
  percentage of EdU-negative: 22.8 ± 2.1%
MCF7; [4]
  percentage of EdU-negative: 24.6 ± 0.57%

## MARFPKADLAAAGVMLLCHFFTDQFQFADGKPGDQILDWQYGVTQAFPHTEEEVEVDSHAYSHRWKRNLDFLKAVDTNRASVGQDSPEPRSFTDLLLDDGQDNNTQIEEDTDHNYYISRIYGPSDSASRDLWVNIDQMEKDKVKIHGILSNTHRQAARVNLSFDFPFYGHFLREITVATGGFIYTGEVVHRMLTATQYIAPLMANFDPSVSRNSTVRYFDNGTALVVQWDHVHLQDNYNLGSFTFQATLLMDGRIIFGYKEIPVLVTQISSTNHPVKVGLSDAFVVVHRIQQIPNVRRRTIYEYHRVELQMSKITNISAVEMTPLPTCLQFNRCGPCVSSQIGFNCSWCSKLQRCSSGFDRHRQDWVDSGCPEESKEKMCENTEPVETSSRTTTTVGATTTQFRVLTTTRRAVTSQFPTSLPTEDDTKIALHLKDNGASTDDSAAEKKGGTLHAGLIIGILILVLIVATAILVTVYMYHHPTSAASIFFIERRPSRWPAMKFRRGSGHPAYAEVEPVGEKEGFIVSEQC [Q6UX71]
hTERT-HMEC; [5]
  percentage of EdU-negative: 4.63 ± 0.96%
hTERT-HMEC; protein concentration 0.225 µM
  percentage of EdU-negative: 7.25 ± 1.4%
MCF7; [5]
  percentage of EdU-negative: 27.4 ± 2.7%
MCF7; protein concentration 0.225 µM
  percentage of EdU-negative: 26.561 ± 0.011%

## MDPKGLLSLTFVLFLSLAFGASYGTGGRMMNCPKILRQLGSKVLLPLTYERINKSMNKSIHIVVTMAKSLENSVENKIVSLDPSEAGPPRYLGDRYKFYLENLTLGIRESRKEDEGWYLMTLEKNVSVQRFCLQLRLYEQVSTPEIKVLNKTQENGTCTLILGCTVEKGDHVAYSWSEKAGTHPLNPANSSHLLSLTLGPQHADNIYICTVSNPISNNSQTFSPWPGCRTDPSETKPWAVYAGLLGGVIMILIMVVILQLRRRGKTNHYQTTVEKKSLTIYAQVQKPGPLQKKLDSFPAQDPCTTIYVAATEPVPESVQETNSITVYASVTLPES
hTERT-HMEC; [5]
  percentage of EdU-negative: 5.0759 ± 0.002%
hTERT-HMEC; protein concentration 0.225 µM
  percentage of EdU-negative: 5.04 ± 0.53%
MCF7; [5]
  percentage of EdU-negative: 24.3 ± 0.12%
MCF7; protein concentration 0.225 µM
  percentage of EdU-negative: 23.1 ± 0.27%

## MRPRLWLLLAAQLTVLHGNSVLQQTPAYIKVQTNKMVMLSCEAKISLSNMRIYWLRQRQAPSSDSHHEFLALWDSAKGTIHGEEVEQEKIAVFRDASRFILNLTSVKPEDSGIYFCMIVGSPELTFGKGTQLSVVDFLPTTAQPTKKSTLKKRVCRLPRPETQKGPLCSPITLGLLVAGVLVLLVSLGVAIHLCCRRRRARLRFMKQFYK
hTERT-HMEC; [6]
  percentage of EdU-negative: 5.15 ± 0.17%
hTERT-HMEC; [7]
  percentage of EdU-negative: 4.67 ± 0.05%
MCF7; [6]
  percentage of EdU-negative: 27.8 ± 0.56%
MCF7; [7]
  percentage of EdU-negative: 28.7 ± 0.39%

## MGADGETVVLKNMLIGINLILLGSMIKPSECQLEVTTERVQRQSVEEEGGIANYNTSSKEQPVVFNHVYNINVPLDNLCSSGLEASAEQEVSAEDETLAEYMGQTSDHESQVTFTHRINFPKKACPCASSAQVLQELLSRIEMLEREVSVLRDQCNANCCQESAATGQLDYIPHCSGHGNFSFESCGCICNEGWFGKNCSEPYCPLGCSSRGVCVDGQCICDSEYSGDDCSELRCPTDCSSRGLCVDGECVCEEPYTGEDCRELRCPGDCSGKGRCANGTCLCEEGYVGEDCGQRQCLNACSGRGQCEEGLCVCEEGYQGPDCSAVAPPEDLRVAGISDRSIELEWDGPMAVTEYVISYQPTALGGLQLQQRVPGDWSGVTITELEPGLTYNISVYAVISNILSLPITAKVATHLSTPQGLQFKTITETTVEVQWEPFSFSFDGWEISFIPKNNEGGVIAQVPSDVTSFNQTGLKPGEEYIVNVVALKEQARSPPTSASVSTVIDGPTQILVRDVSDTVAFVEWIPPRAKVDFILLKYGLVGGEGGRTTFRLQPPLSQYSVQALRPGSRYEVSVSAVRGTNESDSATTQFTTEIDAPKNLRVGSRTATSLDLEWDNSEAEVQEYKVVYSTLAGEQYHEVLVPRGIGPTTRATLTDLVPGTEYGVGISAVMNSQQSVPATMNARTELDSPRDLMVTASSETSISLIWTKASGPIDHYRITFTPSSGIASEVTVPKDRTSYTLTDLEPGAEYIISVTAERGRQQSLESTVDAFTGFRPISHLHFSHVTSSSVNITWSDPSPPADRLILNYSPRDEEEEMMEVSLDATKRHAVLMGLQPATEYIVNLVAVHGTVTSEPIVGSITTGIDPPKDITISNVTKDSVMVSWSPPVASFDYYRVSYRPTQVGRLDSSVVPNTVTEFTITRLNPATEYEISLNSVRGREESERICTLVHTAMDNPVDLIATNITPTEALLQWKAPVGEVENYVIVLTHFAVAGETILVDGVSEEFRLVDLLPSTHYTATMYATNGPLTSGTISTNFSTLLDPPANLTASEVTRQSALISWQPPRAEIENYVLTYKSTDGSRKELIVDAEDTWIRLEGLLENTDYTVLLQAAQDTTWSSITSTAFTTGGRVFPHPQDCAQHLMNGDTLSGVYPIFLNGELSQKLQVYCDMTTDGGGWIVFQRRQNGQTDFFRKWADYRVGFGNVEDEFWLGLDNIHRITSQGRYELRVDMRDGQEAAFASYDRFSVEDSRNLYKLRIGSYNGTAGDSLSYHQGRPFSTEDRDNDVAVTNCAMSYKGAWWYKNCHRTNLNGKYGESRHSQGINWYHWKGHEFSIPFVEMKMRPYNHRLMAGRKRQSLQF
hTERT-HMEC; [8]
  percentage of EdU-negative: 5.09 ± 0.52%
hTERT-HMEC; [9]
  percentage of EdU-negative: 6.03 ± 1.7%
MCF7; [8]
  percentage of EdU-negative: 26.36 ± 0.12%
MCF7; [9]
  percentage of EdU-negative: 26.4 ± 0.85%
